The target of experiment [1] is Fc-tagged SARS-CoV-2 RBD (SARS-CoV-2) (UniProt P0DTC2). Put plainly: BLI; Octet Red96e, room temperature; Fc-tagged RBD (20 μg/ml) loaded on anti-hIgG Fc Capture (AHC) biosensors, Fab in solution; 1× kinetics buffer (1× PBS pH 7.4, 0.01% BSA, 0.002% Tween 20); 60 s association, 60 s dissociation; 1:1 binding model. (In general: Biolayer interferometry detects binding as a change in optical thickness at a sensor tip.)

For experiment [2], the target named is Fc-tagged SARS-CoV-2 spike receptor-binding domain (RBD) (SARS-CoV-2) (UniProt P0DTC2). Kind of experiment: BLI; Fc-tagged RBD (20 ug/ml) loaded on anti-hIgG Fc Capture (AHC) biosensors, Fab in solution; room temperature; 1x PBS pH 7.4, 0.01% BSA, 0.002% Tween 20; 1:1 binding model.
The target in experiment [3] is Fc-tagged SARS-CoV-2 receptor-binding domain (RBD), wild type (SARS-CoV-2) (UniProt P0DTC2). Put plainly: BLI; Fc-tagged RBD (20 ug/ml) loaded on anti-hIgG Fc Capture (AHC) biosensors, Fab in solution at four to five concentrations; Octet Red96e, room temperature, 1x kinetics buffer (1x PBS pH 7.4, 0.01% w/v BSA, 0.002% v/v Tween 20); 1:1 binding model.

As a reminder, the Kd is the equilibrium constant for the complex coming apart. Low readings indicate tighter binding, high ones weaker binding.

For “COVD21-C8 heavy chain paired with the light chain of COV107-23 (Fab)”, the Kd in experiment [1] is greater than 1000 nM.
The substance CC12.3 Fab, F58 (wild type) gave a Kd in experiment [2] of 14 nM.
Still for that read-out and setting: in the case of “COV107-23 Fab, Y58 variant (heavy chain F58Y)” it was 362 nM.
In experiment [1], “COV107-23 paired with the light chain of COVD21-C8 (Fab)” displayed a Kd greater than 1000 nM.
In the case of CC12.3 Fab, wild type, the Kd in experiment [3] was found to be 14 nM.

The values above are taken from PMC8217500.
